B1: Serine/threonine-protein kinase D2 (Homo sapiens), Q9BZL6 (parent)
chain: MATAPSYPAGLPGSPGPGSPPPPGGLELQSPPPLLPQIPAPGSGVSFHIQIGLTREFVLLPAASELAHVKQLACSIVDQKFPECGFYGLYDKILLFKHDPTSANLLQLVRSSGDIQEGDLVEVVLSASATFEDFQIRPHALTVHSYRAPAFCDHCGEMLFGLVRQGLKCDGCGLNYHKRCAFSIPNNCSGARKRRLSSTSLASGHSVRLGTSESLPCTAEELSRSTTELLPRRPPSSSSSSSASSYTGRPIELDKMLLSKVKVPHTFLIHSYTRPTVCQACKKLLKGLFRQGLQCKDCKFNCHKRCATRVPNDCLGEALINGDVPMEEATDFSEADKSALMDESEDSGVIPGSHSENALHASEEEEGEGGKAQSSLGYIPLMRVVQSVRHTTRKSSTTLREGWVVHYSNKDTLRKRHYWRLDCKCITLFQNNTTNRYYKEIPLSEILTVESAQNFSLVPPGTNPHCFEIVTANATYFVGEMPGGTPGGPSGQGAEAARGWETAIRQALMPVILQDAPSAPGHAPHRQASLSISVSNSQIQENVDIATVYQIFPDEVLGSGQFGVVYGGKHRKTGRDVAVKVIDKLRFPTKQESQLRNEVAILQSLRHPGIVNLECMFETPEKVFVVMEKLHGDMLEMILSSEKGRLPERLTKFLITQILVALRHLHFKNIVHCDLKPENVLLASADPFPQVKLCDFGFARIIGEKSFRRSVVGTPAYLAPEVLLNQGYNRSLDMWSVGVIMYVSLSGTFPFNEDEDINDQIQNAAFMYPASPWSHISAGAIDLINNLLQVKMRKRYSVDKSLSHPWLQEYQTWLDLRELEGKMGERYITHESDDARWEQFAAEHPLPGSGLPTDRDLGGACPPQDHDMQGLAERISVL
partner: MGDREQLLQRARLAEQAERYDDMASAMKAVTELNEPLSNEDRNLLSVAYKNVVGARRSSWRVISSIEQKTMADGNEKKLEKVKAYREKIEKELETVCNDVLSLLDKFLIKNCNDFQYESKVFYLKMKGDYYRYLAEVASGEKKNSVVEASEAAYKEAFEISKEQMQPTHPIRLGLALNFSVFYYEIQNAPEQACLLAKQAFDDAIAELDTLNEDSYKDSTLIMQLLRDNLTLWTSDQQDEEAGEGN

Variants of: B1
Conditions: with 1433f_human YWHAH

effect of a mutation on the interaction	Variant
disrupting interaction	S244E;S706E;S710E

— IntAct's records for PubMed 17962809
